Among the data in PMC12212138, “Crystal structure and mutagenesis of a nucleic acid–binding BRCT domain in human PARP4” are Kd values, retold here.

Substitutions are numbered along the chain they refer to.

What all share (settings): protein: recombinant; tags: N-terminal His-SUMO removed by TEV; label: 5'-6-FAM; predicted intramolecular fold
Data set [1] addresses T1, PARP4 BRCT F39A (human, UniProt Q9UKK3 1-100, F39A).
T1 sequence: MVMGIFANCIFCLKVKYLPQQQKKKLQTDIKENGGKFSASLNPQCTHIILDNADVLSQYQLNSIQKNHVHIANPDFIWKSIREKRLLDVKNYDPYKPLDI
Briefly: FP; 3 nM probe; FP: 50 mM Tris pH 7.5, 50 mM NaCl, 1 mM MgCl2, 0.05% NP40, 2 mM DTT, 5% glycerol, 25 ug/ml BSA, room temp 30 min; EMSA: 50 mM Tris pH 7.5, 50 mM NaCl, 4% Ficoll PM400, 0.05% NP40, 2 mM DTT, 0-18 uM protein, room temp 30 min, gel at 4 C. (In general: Mobility shift assays separate free from complexed probe on a gel.)

In a further data set the target is T2, PARP4 BRCT-WGR-CAT WT (human, UniProt Q9UKK3 1-573).
T2 sequence: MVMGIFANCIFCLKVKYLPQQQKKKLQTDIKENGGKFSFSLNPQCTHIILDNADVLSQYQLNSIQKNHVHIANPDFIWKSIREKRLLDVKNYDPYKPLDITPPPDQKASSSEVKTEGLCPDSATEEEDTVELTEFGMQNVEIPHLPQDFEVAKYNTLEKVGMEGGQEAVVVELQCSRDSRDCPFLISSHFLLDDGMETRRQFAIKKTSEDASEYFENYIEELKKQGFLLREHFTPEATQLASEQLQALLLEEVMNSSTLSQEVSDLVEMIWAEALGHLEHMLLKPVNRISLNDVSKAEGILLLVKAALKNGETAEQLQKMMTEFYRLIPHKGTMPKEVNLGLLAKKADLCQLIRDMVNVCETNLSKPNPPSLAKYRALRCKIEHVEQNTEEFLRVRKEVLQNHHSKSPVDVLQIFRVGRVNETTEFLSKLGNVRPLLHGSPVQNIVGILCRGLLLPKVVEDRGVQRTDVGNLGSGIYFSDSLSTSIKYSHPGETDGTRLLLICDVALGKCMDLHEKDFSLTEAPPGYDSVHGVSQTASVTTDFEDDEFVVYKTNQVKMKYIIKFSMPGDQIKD
Briefly: EMSA; 20 nM probe; FP: 50 mM Tris pH 7.5, 50 mM NaCl, 1 mM MgCl2, 0.05% NP40, 2 mM DTT, 5% glycerol, 25 ug/ml BSA, room temp 30 min; EMSA: 50 mM Tris pH 7.5, 50 mM NaCl, 4% Ficoll PM400, 0.05% NP40, 2 mM DTT, 0-18 uM protein, room temp 30 min, gel at 4 C.

Data set [2] concerns the target T1, PARP4 BRCT F39A. The data set is described as above.
For a further data set, the target named is T3, PARP4 BRCT K31Q (human, UniProt Q9UKK3 1-100, K31Q).
T3 sequence: T1 sequence with K31Q, A39F
The data set is described as above.

In data set [3] the target is T4, PARP4 BRCT-WGR-CAT K23/24Q (human, UniProt Q9UKK3 1-573, K23Q;K24Q).
T4 sequence: T2 sequence with K23Q, K24Q
Briefly: EMSA; 20 nM probe; rough estimate; FP: 50 mM Tris pH 7.5, 50 mM NaCl, 1 mM MgCl2, 0.05% NP40, 2 mM DTT, 5% glycerol, 25 ug/ml BSA, room temp 30 min; EMSA: 50 mM Tris pH 7.5, 50 mM NaCl, 4% Ficoll PM400, 0.05% NP40, 2 mM DTT, 0-18 uM protein, room temp 30 min, gel at 4 C.

The next data set addresses T5, PARP4 BRCT WT (human, UniProt Q9UKK3 1-100).
T5 sequence: T1 sequence with A39F
Briefly: FP; 30 nM probe, probe concentration comparison; FP: 50 mM Tris pH 7.5, 50 mM NaCl, 1 mM MgCl2, 0.05% NP40, 2 mM DTT, 5% glycerol, 25 ug/ml BSA, room temp 30 min; EMSA: 50 mM Tris pH 7.5, 50 mM NaCl, 4% Ficoll PM400, 0.05% NP40, 2 mM DTT, 0-18 uM protein, room temp 30 min, gel at 4 C.

B1: vtRNA1-3 (structured_RNA)
RNA: GGCUGGCUUUAGCUCAGCGGUUACUUCGCGUGUCAUCAAACCACCUCUCUGGGUUGUUCGAGACCCGCGGGCGCUCUCCAGCCCUCUU
The term Kd denotes the free concentration of one partner at which half of the binding sites on the other are occupied at equilibrium, for simple one-to-one binding. For B1, the Kd in the data set with PARP4 BRCT F39A [1] is 33 ± 2 µM; with PARP4 BRCT-WGR-CAT WT, 3 ± 1 µM; in the data set with PARP4 BRCT F39A [2] it was 0.6 ± 0.1 µM; in the data set with PARP4 BRCT K31Q, 3 ± 1 µM; in data set [3], around 54 µM; in the data set with PARP4 BRCT WT, 18 ± 3 µM.
